From US20170226172A1
Each block holds one binder with its values, some of them ahead of it.

Target: FGFR1c/alpha-klotho receptor complex, human, pre-formed (SPR analyte) (human) (UniProt P11362)
Test: SPR competition: FGF23 on the chip surface, FGFR1c-alphaKlotho complex in solution mixed with the competitor; Ki listed at the upper right of the sheet

Ki: 31 nM
B1: Wild Type Human FGF23 c-tail 180-251 (72 amino acid peptide) (peptide)
peptide: SAEDDSERDPLNVLKPRARMTPAPASCSQELPSAEDNSPMASDPLGVVRGGRVNTHAGGTGPEGCRPFAKFI

Ki: 46 nM
B2: N-terminal FGF23 c-tail Fc fusion (Fc fusion, not shown: a dimerising Fc or GST; small tags and cut ends)
chain: B1 peptide
